Biological target: the molecule itself
Assay: SEC-MALS

B1: ZAK LZ-SAM (residues 286-410), purified (domain or fragment, human, UniProt Q9NYL2-1 286-410, looked up)
chain: EIEATLERLKKLERDLSFKEQELKERERRLKMWEQKLTEQSNTPLLPSFEIGAWTEDDVYCWVQQLVRKGDSSAEMSVYASLFKENNITGKRLLLLEEEDLKDMGIVSKGHIIHFKSAIEKLTHD
In the case of B1, the “stoichiometry N” value is reported as 2.

Reference: article PMC4728371 (Genome Research, 2016)
